The values below come from patent US5484732, “Transcription factor for regulation of the development of skin and hair” (The Regents of the University of California, dated 1996).

This data set deals with the molecule itself. The data set can be described thus: DSS crosslinking in solution of 35S-labelled protein translated in vitro, SDS/polyacrylamide gel (self-association). The method, then: With respect to (1), the effect of the Skn-1i inhibitory region on dimerization in solution was assayed by the ability of a homobifunctional crosslinking agent [disuccnidyl suberate (DSS)] to crosslink in vitro translated proteins.
Specifically, approximately 100,000 cpm of ^35S-labeled Skn-1i, Δ32Skn-1i, 1–99 (N/T) Skn1-i and Δ60 (N/T) Skn1-i proteins were added separately to […] of binding buffer (10 mM HEPES [pH7.8], 50 mM K CI, 5% glycerol). After 15 minutes at room temperature, […] of DSS (suspended in 5 mg/ml DMSO) or DMSO alone was added to each of the reactions. After 5 minutes, the reaction was stopped by adding SDS sample buffer to each which was then boiled prior to analyses on SDS/polyacrylamide gels. To quantitate crosslinking efficiency, monomers ("M" on FIG. 12) and dimers ("D" on FIG. 12) were excised from the gel and counted by scintillation counting.

B1: Δ32 Skn-1i (other)
chain: LQPNLLSFPQQQSTLLLPQTGPGLTSQAVGRPGLSGSSLEPHLEASQHLPGPKHLPGPGGNDEPTDLEELEKFAKTFKQRRIKLGFTQGDVGLAMGKLYGNDFSQTTISRFEALNLSFKNMCKLKPLLEKWLNDAESSPADPSASTPSSYPTLSEVFGRKRKKRTSIETNIRLTLEKRFQDNPKPSSEEISMIAEQLSMEKEVVRVWFCNRRQKEKRINCPVATPVKPPIYNSRLVSPSGSLGSLSVPPVHSTMPGTVTSSCSPGNNSRPSSPGSGLHASSPTASQNNSKAAMNPSSAAFNSSGSWYRWNHPAYLH
As to B1, the binding result is “no binding”.
